Values of other authors, collected in publication PMC5979539 (International Journal of Molecular Sciences, 2018).

Test system: PC membranes
Conditions: cited from earlier work
Description: Despite the above-discussed limitations, we were able to determine the SPR binding parameters of PDC-109. Affinity constants (Table 4) indicated weak to moderate binding for carbohydrates, at least if compared to the considerably higher affinity (KA~10^7 M^−1) found for PC membranes.

B1: PDC-109: main protein of bovine seminal plasma, purified from bull seminal plasma; glycosylated and non-glycosylated forms (protein)
chain: DQDEGVSTEPTQDGPAELPEDEECVFPFVYRNRKHFDCTVHGSLFPWCSLDADYVGRWKYCAQRDYAKCVFPFIYGGKKYETCTKIGSMWMSWCSLSPNYDKDRAWKYC
modifications: mixture of the glycosylated (O-linked trisaccharide, Neu5Ac-Hex-HexNAc) and non-glycosylated forms
  KA for PC membranes: ~ 10^7 M^−1
